Measurements as given in patent US20180371083A1.
pKd: −log10 of the molar value.

Legend:
[1] = biological target: human TIGIT-His protein (extracellular domain of human TIGIT fused to His tag) (human) (UniProt Q495A1); assay: SPR, Biacore T200; antibody captured on anti-mouse IgG, human TIGIT-His as analyte; 1:1 Langmuir fit
[2] = biological target: human TIGIT expressed on cells (CHO-K1 transfectants; Jurkat over-expressing human TIGIT) (human) (UniProt Q495A1); assay: cell-based or functional assay
Sequence of human TIGIT expressed on cells (CHO-K1 transfectants; Jurkat over-expressing human TIGIT) (human) (Q495A1 25-244): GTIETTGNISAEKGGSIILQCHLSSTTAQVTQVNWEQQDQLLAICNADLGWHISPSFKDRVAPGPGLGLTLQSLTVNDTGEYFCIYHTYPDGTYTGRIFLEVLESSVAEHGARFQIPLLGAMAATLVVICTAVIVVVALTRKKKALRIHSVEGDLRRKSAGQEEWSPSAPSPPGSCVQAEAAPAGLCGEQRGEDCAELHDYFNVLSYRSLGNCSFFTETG

Sequence of human TIGIT-His protein (extracellular domain of human TIGIT fused to His tag) (human) (Q495A1 25-141 limits assumed): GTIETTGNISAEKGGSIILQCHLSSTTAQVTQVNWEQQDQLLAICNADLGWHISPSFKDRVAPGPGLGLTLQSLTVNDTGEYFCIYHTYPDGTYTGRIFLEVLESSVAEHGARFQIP

pKd [1]: 10.44
EC50, rescue of IL-2 in hTIGIT-Jurkat / THP-1 co-culture with CD155-Fc or CD112-Fc [2]: 0.23 µg/mL
Substance: commercial anti-hTIGIT antibody, clone MBSA43 (eBioscience Cat#12-9500-42)
